From publication PMC4751646, “Red Sea Atlantis II brine pool nitrilase with unique thermostability profile and heavy metal tolerance” (BMC Biotechnology, 2016)

System: N#CCCC#N
Assay: purified protein
Format: biochemical, uncultured Burkholderiaceae bacterium
Conditions: 50 mM potassium phosphate pH 7.0, 40 °C, 2 mM DTT, 0-975 mM substrate

NitraS-ATII (uncultured Burkholderiaceae bacterium)
Km: 59.4 ± 6.8 mM | kcat: 0.472 s⁻¹
